These results are taken from the RNAGym collection of RNA variant scans (doi:10.7554/elife.80360).

First the molecules themselves.
B1: HDV Ribozyme (parent)
chain: GGCCGGCAUGGUCCCAGCCUCCUCGCUGGCGCCGGCUGGGCAACAUUCCGAGGGGACCGUCCCCUCGGUAAUGGCGAAUGGGACCCA

This data set covers variants of B1. In words: self-cleavage, relative activity (ratio to wild type); higher = more cleavage; co-transcriptional.
As to G1C U69C, the self-cleavage stood at 0.158.

On to G2A U37A, for which the self-cleavage turned out to be 0.0755. In the case of G2A C24G, the self-cleavage came out at 0.0378.

Take G2U C18U: the self-cleavage turned out to be 0.0755. G1C U27C: the self-cleavage is 0. Regarding G1C G6C, the self-cleavage was 0. In the case of G1C G11A it was 0.0652. As for G1C G11C, the self-cleavage turned out to be 0.131. G1C C48U: the self-cleavage was determined as 0.227. Next, G1U C30A: 0.426; G2A A83U: 0.119; G2U A43G: 0.0205.

Consider G1A G17C, for which the self-cleavage worked out at 0.107. Next, G1A G11C: 0.172. In the case of G2A C22G it was 0.0191; in that of G1C G31U, 0.0791.

Consider G2A G50A, for which the self-cleavage was found to be 0.0386.

In the case of G2C U9G, the self-cleavage turned out to be 0.0723.

For G1C A71U, the self-cleavage was found to be 0.

In the case of G2U C86G, the self-cleavage worked out at 0.117. For the variant G2U C49A, the self-cleavage amounted to 0.118. Next, G1C C58U: 0.0923. As for G1A G80A, the self-cleavage was 0.0455. Next, G2U C64U: 0.111; G2U C64A: 0.0339. Next, G1A G81U: 0.0426; G1A G81C: 0.269; G2A C41A: 0.168. In the case of G2C A71U it was 0.11; in that of G2C A71C, 0.0723; in that of G1C A87C, 0.156. For G2C G39C, the self-cleavage came to 0.

As for G2C G39A, the self-cleavage is 0.121. As for G1U G31A, the self-cleavage stood at 0.364.

With G2C C49G, the self-cleavage was 0.145. For G1A G54U, the self-cleavage came out at 0.0475.

For G1A G54C, the self-cleavage came out at 0.364. Next, G1A G54A: 0.172. In the case of G1A U60G, the self-cleavage is 0.302. Next, G2A C58U: 0.113; G2A C58A: 0.234. In the case of G1A G52C it was 0.237; in that of G1A G52U, 0.162; in that of G1U G67C, 0.305. Consider G2A C85G, for which the self-cleavage came out at 0.217. In the case of G2A C85A it was 0.268; in that of G1C G35A, 0.208. In the case of G1C G35C it was 0; in that of G1U G11C, 0.288.

For G1C C64U, the self-cleavage was 0.155. For the variant G1U C22G, the self-cleavage was 0.214.

As for G1U C22U, the self-cleavage was determined as 0.356. In the case of G2U A56G it was 0.0674; in that of G1C G34A, 0.0405.

Take G2A C66U: the self-cleavage was 0.192.

As for G2U C58U, the self-cleavage came to 0.109. In the case of G2A C36A it was 0.228; in that of G1A G28U, 0.106.

For G1A G28C, the self-cleavage was determined as 0.219. For the variant G2C G76U, the self-cleavage was 0.0455. In the case of G1U C84G it was 0.297; in that of G1C G40C, 0.0475; in that of G2U C14G, 0.0354. As for G2U C14U, the self-cleavage is 0.0468. For G1C G52C, the self-cleavage came to 0.256. On to G2A C49U, for which the self-cleavage is 0.237.

As to G2U C24A, the self-cleavage turned out to be 0.0554. On to G1U C61A, for which the self-cleavage was 0.326. In the case of G1U C61G it was 0.326. In the case of G1C A16G it was 0.196. Regarding G1U G6A, the self-cleavage amounted to 0.41. In the case of G2C C57G it was 0.0228. Consider G1A U65G, for which the self-cleavage turned out to be 0. Next, G2C C18A: 0.0346; G1U G76A: 0.62. With G1U A78G, the self-cleavage worked out at 0.346. G2C U46A: the self-cleavage was determined as 0.0911. Next, G2C U46G: 0.0959; G1C G82A: 0.0475; G2A U27A: 0.0997. Turning to G2A U27G, the self-cleavage was found to be 0. Take G1C C13U: the self-cleavage amounted to 0.125.

Consider G2A C30A, for which the self-cleavage was 0.0152. In the case of G2A C30G it was 0.0432; in that of G2A C30U, 0.0639; in that of G2C G11U, 0.0519. Regarding G2C U20C, the self-cleavage came to 0.0536. Regarding G1A U12G, the self-cleavage stood at 0.554. For the variant G1A U12C, the self-cleavage was 0. Consider G1A U72G, for which the self-cleavage amounted to 0.0665. As to G1A U72A, the self-cleavage stood at 0.246. Next, G1A U72C: 0.107; G1U C14A: 0.222; G1U C14G: 0.397.

On to G1C G5A, for which the self-cleavage was 0.0536.

As to G2A C19A, the self-cleavage turned out to be 0.0292. In the case of G1U G25C, the self-cleavage amounted to 0.17. As for G1U G25A, the self-cleavage came out at 0.354. Regarding G2A G73U, the self-cleavage came out at 0.0443. Turning to G2U C44U, the self-cleavage is 0. In the case of G2U C44A it was 0.0583; in that of G1C G76A, 0.26. As for G1U C48G, the self-cleavage was determined as 0.243. Turning to G1U G55C, the self-cleavage came out at 0.455. With G2C G82A, the self-cleavage is 0.0462. Next, G1A G55U: 0.309; G1U A42U: 0.332. As to G2A A43C, the self-cleavage worked out at 0.0665. Next, G2A C44U: 0.0554; G2C C61U: 0.137; G2C C61G: 0.0647. For the variant G2A U9A, the self-cleavage came to 0.0773. Regarding G2A C62U, the self-cleavage stood at 0.0886. In the case of G2A C7G it was 0.017; in that of G2A C7U, 0.0852. Regarding G2C C21A, the self-cleavage worked out at 0. As for G2U C33A, the self-cleavage stood at 0.043. In the case of G2U C33G it was 0.00889; in that of G2C G59A, 0.0193. G1U G54A: the self-cleavage stood at 0.277.

Turning to G1U G54C, the self-cleavage was 0.361. Next, G1U U65C: 0.399; G2C C33A: 0.0528. With G1U G73A, the self-cleavage was found to be 0.237. Next, G2A A16U: 0.0665; G1A U23G: 0. In the case of G1U G10C it was 0.292; in that of G2C G80A, 0.0573. Next, G1C G59C: 0.365; G1C G29U: 0.142.

As for G1C G29A, the self-cleavage amounted to 0.0536. Next, G2C G28A: 0.0475; G2C G28C: 0.0475.

For the variant G2A G11U, the self-cleavage was found to be 0.0328. In the case of G2A G11A it was 0.0786; in that of G2U C41A, 0.0589. Next, G1C C49A: 0.237.

Regarding G1C A78C, the self-cleavage came to 0. In the case of G2C C26U it was 0.124. Take G2U A16U: the self-cleavage came out at 0.0237. As to G2U A16G, the self-cleavage stood at 0.0426. G1U U20C: the self-cleavage came out at 0.401. With G2A U47G, the self-cleavage came to 0.374. In the case of G2A U47C it was 0.0292; in that of G2C C13G, 0.0504. In the case of G2A C26A it was 0.216.

On to G2A C26G, for which the self-cleavage stood at 0.166. In the case of G1C U60A it was 0.237; in that of G1C G73U, 0.0426; in that of G1U U46G, 0.259. Take G2A C63G: the self-cleavage is 0.0804. Turning to G2A C63U, the self-cleavage came to 0.162. Consider G2C A77U, for which the self-cleavage was found to be 0.119. With G1C C75A, the self-cleavage amounted to 0. Regarding G2A C21G, the self-cleavage was found to be 0.0528. In the case of G1C G17U it was 0.0573; in that of G1C G17C, 0; in that of G1C G17A, 0.332. Next, G2C U60G: 0.0326; G2C U60A: 0.0779.

Turning to G2A C33G, the self-cleavage worked out at 0.0378.

G2U C3G: the self-cleavage is 0.0222. In the case of G2U C3U, the self-cleavage stood at 0.0228. In the case of G1A G50C it was 0.302; in that of G1A G50U, 0.128. With G2U A42G, the self-cleavage turned out to be 0.0767. Turning to G1U G34C, the self-cleavage worked out at 0.155.
